Results published in PMC10770632 (STAR Protocols, 2023).

Target: T1, D3 fragment of DROSHA (amino acids 390–1365) (human, UniProt Q9NRR4 390-1365)
T1 sequence (looked up): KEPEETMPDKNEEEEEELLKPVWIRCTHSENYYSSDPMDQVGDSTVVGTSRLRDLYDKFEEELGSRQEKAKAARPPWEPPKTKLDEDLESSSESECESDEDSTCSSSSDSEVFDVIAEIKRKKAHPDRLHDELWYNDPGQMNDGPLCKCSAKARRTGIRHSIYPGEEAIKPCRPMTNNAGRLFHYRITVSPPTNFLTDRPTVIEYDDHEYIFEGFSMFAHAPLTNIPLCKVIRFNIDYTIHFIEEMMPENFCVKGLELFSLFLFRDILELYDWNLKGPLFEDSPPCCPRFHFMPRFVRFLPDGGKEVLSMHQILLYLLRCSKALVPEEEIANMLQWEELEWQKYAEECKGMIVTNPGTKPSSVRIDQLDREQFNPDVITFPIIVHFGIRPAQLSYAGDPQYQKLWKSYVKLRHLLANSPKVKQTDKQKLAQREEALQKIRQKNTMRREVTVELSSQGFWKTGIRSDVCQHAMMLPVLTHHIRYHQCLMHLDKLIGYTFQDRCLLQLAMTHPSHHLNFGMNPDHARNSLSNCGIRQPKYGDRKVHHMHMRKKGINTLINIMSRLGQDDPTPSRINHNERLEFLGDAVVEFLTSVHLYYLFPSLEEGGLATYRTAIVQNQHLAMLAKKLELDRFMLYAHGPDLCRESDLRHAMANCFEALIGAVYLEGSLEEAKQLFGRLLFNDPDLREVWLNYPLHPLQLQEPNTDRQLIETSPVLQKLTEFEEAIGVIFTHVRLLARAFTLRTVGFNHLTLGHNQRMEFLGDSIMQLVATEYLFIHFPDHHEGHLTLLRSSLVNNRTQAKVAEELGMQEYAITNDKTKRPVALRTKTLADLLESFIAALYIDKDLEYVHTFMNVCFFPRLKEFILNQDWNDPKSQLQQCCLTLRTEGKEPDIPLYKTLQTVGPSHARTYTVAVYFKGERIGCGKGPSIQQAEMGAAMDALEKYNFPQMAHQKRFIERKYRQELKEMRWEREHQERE
Assay: reconstitution by mixing purified proteins

B1: G4 fragment of DGCR8 (amino acids 285–750), dimeric (domain or fragment, human, UniProt Q8WYQ5 285-750, looked up)
chain: MTKIKTVLKSRGRPPTEPLPDGWIMTFHNSGVPVYLHRESRVVTWSRPYFLGTGSIRKHDPPLSSIPCLHYKKMKDNEEREQSSDLTPSGDVSPVKPLSRSAELEFPLDEPDSMGADPGPPDEKDPLGAEAAPGALGQVKAKVEVCKDESVDLEEFRSYLEKRFDFEQVTVKKFRTWAERRQFNREMKRKQAESERPILPANQKLITLSVQDAPTKKEFVINPNGKSEVCILHEYMQRVLKVRPVYNFFECENPSEPFGASVTIDGVTYGSGTASSKKLAKNKAARATLEILIPDFVKQTSEEKPKDSEELEYFNHISIEDSRVYELTSKAGLLSPYQILHECLKRNHGMGDTSIKFEVVPGKNQKSEYVMACGKHTVRGWCKNKRVGKQLASQKILQLLHPHVKNWGSLLRMYGRESSKMVKQETSDKSVIELQQYAKKNKPNLHILSKLQEEMKRLAEEREETR
- binding result: binds
